B1: Protein E6 (Bovine papillomavirus type 1), P06931 (parent)
chain: MDLKPFARTNPFSGLDCLWCREPLTEVDAFRCMVKDFHVVIREGCRYGACTICLENCLATERRLWQGVPVTGEEAELLHGKTLDRLCIRCCYCGGKLTKNEKHRHVLFNEPFCKTRANIIRGRCYDCCRHGSRSKYP
B2: Protein E6 (Human papillomavirus type 16), P03126 (parent)
chain: MHQKRTAMFQDPQERPRKLPQLCTELQTTIHDIILECVYCKQQLLRREVYDFAFRDLCIVYRDGNPYAVCDKCLKFYSKISEYRHYCYSLYGTTLEQQYNKPLCDLLIRCINCQKPLCPEEKQRHLDKKQRFHNIRGRWTGRCMSCCRSSRTRRETQL

The variants in assay [1] derive from B1. To be noted: with paxi_human PXN.
Variants of B1 are the subject of assay [2]. The note with it: with paxi_human PXN. The source holds these as a separate data set.
In assay [3] the parent is B2. To be noted: with ube3a_human UBE3A.
In assay [4] the parent is B2. To be noted: with ube3a_human UBE3A. This is another data set of the same source.

R121G: the “effect of a mutation on the interaction” value is reported as “decreasing interaction strength” in assay [1] and “disrupting interaction strength” in assay [2].

For L58S, the figures for the “effect of a mutation on the interaction” value in assay [1] and in assay [2] were “decreasing interaction strength” and “disrupting interaction strength”, respectively. Taken in the same sequence, the figures for F37S were “decreasing interaction strength” and “disrupting interaction strength”.

R89A: the “effect of a mutation on the interaction” value in assay [1] is listed as “decreasing interaction strength”; in assay [2], “disrupting interaction strength”. As for R89L, the “effect of a mutation on the interaction” value in assay [1] is “decreasing interaction strength”; in assay [2] it was “disrupting interaction strength”. Taken in the same sequence, the figures for R116G were “decreasing interaction strength” and “disrupting interaction strength”. Taken in the same sequence, the figures for R116D were “decreasing interaction strength” and “disrupting interaction strength”.

As for R62A, the “effect of a mutation on the interaction” value in assay [3] is listed as “decreasing interaction strength”.

Consider R17A, for which the “effect of a mutation on the interaction” value in assay [3] was “decreasing interaction strength”.

With R138A, the “effect of a mutation on the interaction” value is “disrupting interaction strength” in assay [3] and “decreasing interaction strength” in assay [4]. For R109A, in that order: “disrupting interaction strength” and “decreasing interaction strength”.

As for S78R, the “effect of a mutation on the interaction” value in assay [3] was “decreasing interaction strength”. On to L57E, for which the “effect of a mutation on the interaction” value in assay [4] is “disrupting interaction strength”.

Take L57A: in assay [3], the “effect of a mutation on the interaction” value is “disrupting interaction strength”.

The values are drawn from IntAct's records for PubMed 23393263.
